Marks after values point to notes of the source that are not given here.
Experiments:
[1] = Uptake of the active ingredient in canola seedling cotyledons after seed treatment with or without cutinase; format: in vivo; conditions: canola, cotyledons (leaf), other: seed treatment (slurry applied to seeds), 20.1 μg/seed; Cotyledon analysis seven days after planting; normalized using mean % Al recovery (90.9%) and mean % coating efficiency; read-out: Mean Al Uptake (ng/mg leaf)
Procedure: (§1) Canola seeds were treated with formulated product diluted in water by spinning 100 g seed in a 1-liter HEGE bowl while applying treatment slurry. Seeds were spun until dry.
(§2) On the day of planting, 24-well plates (10 mL, nonsterile) were filled with a highly organic plug & seedling mix. Water was uniformly applied to the soil surface using a spray nozzle until just before complete saturation of soil column. Soil was tamped down to a level of 1 cm below plate surface. One treated seed was placed on the soil surface of each well and then covered with potting mixture leveled to the plate surface. The top soil surface was sprayed once more to moisten. Plates were then held in an incubator and top-watered as needed with fertilizer water (NPK 16-4-20-3(Ca)-1(Mg)) via spray nozzle. Seven days after planting, both cotyledons from ten plants were sampled for analysis by clipping the point where cotyledon meets stem. Replication was 10×.
(§3) The seed/excised cotyledons were extracted with acetonitrile solvent (3 mL, containing 1% acetic acid) by homogenization in Teflon tubes using 2010 Geno/Grinder (Spex Sample Prep) for 2 min at 1200 RPM. The homogenate was then mixed with anhydrous sodium sulphate (˜600 mg), sodium acetate (˜100 mg) and vortexed well before centrifugation using Beckman Coulter (Allegra X-14R) centrifuge for 5 min at 3000 RPM. The clear supernatant was then transferred into appropriate vials for LC/MS analysis.
(§4) LCMS analyses were performed using Thermo Fisher Scientific Extractive Orbitrap Mass Analyzer with electrospray positive mode of ionization. Thermo Fisher Scientific Surveyor MS Plus Pump and autosampler were used for the chromatographic runs through a column (Sonoma-C18, 2.1×100 mm, 5 μm). The gradient started with 98:2 Water/MeOH (containing 4 mM ammonium formate and 0.1% formic acid) and ending with 98:2 MeOH/Water in about 10 min.

canola seedlings = assay: as above; format: in vivo; conditions: for Al Uptake (%) / Mean Al Uptake (ng/mg leaf): Cotyledon analysis seven days after planting; for Al Uptake (%): calculated based on spiked control, 22340 ng/replicate; for Mean Al Uptake (ng/mg leaf): normalized using mean % Al recovery (90.9%) and mean % coating efficiency
Procedure: as §1, §2, §3, §4

wheat seedlings = assay: Clothianidin uptake in wheat seedlings (cotyledon analysis) after seed treatment with cutinases; format: in vivo, Triticum sp.; conditions: for Average of clothianidin detected on 15 pairs of wheat cotyledons: wheat seed treatment with clothianidin plus enzyme-containing cell extract; for % Clothianidin uptake in wheat cotyledons: wheat seed treatment, one way ANOVA test (P = 0.002); for percent clothianidin uptake in wheat seedlings, effect of cutinase seed treatment: P=0.002
Procedure: a. Seed treatment: Formulations were diluted and enzymes were dissolved in HPLC water. Solutions were made and mixed immediately before each treatment. For each treatment, 100 g of spring wheat seeds (Triticum sp.) were placed in a 1-L bowl of a HEGE 11 seed treater. Treatment slurry was applied to spinning seeds in an application volume of 1.5 mL including 2.05 mg of lyophilized enzyme-containing cell extracts and seeds were spun until dry. Directly after treatment, seeds were transferred to paper seed pouches and stored in a cooler filed with ice packs until planting.
b. Plant incubation: Before seed treatment, 24-well plates were filled with RediEarth potting mixture sifted through a 3.35-mm mesh sieve. Tap water was uniformly applied to the soil surface using a conical spray nozzle until just before complete saturation of soil column (˜55 mL/plate). The soil was tamped down to a level of 1 cm below plate surface. One hour after treatment, one seed was placed on the soil surface of each well. RediEarth was sifted directly over the wells and the soil line was levelled to the plate surface. The soil surface was moistened again with ˜22 mL water/plate. Plates were then held in a randomized complete block design in an incubator at 25° C., 50% RH containing two FloraSun (F25T8 Plant Growth) lights at 14L:10D. Replication was 10 plates per treatment.
d. Cotyledon analysis: Fifteen excised pairs of wheat cotyledons were extracted (10× replicates) with acetonitrile solvent (10 mL, containing 1% acetic acid) by homogenization. The homogenate is first centrifuged to bring down the solvent/material sticking to the cap using Beckman Coulter (Allegra X-14R) centrifuge for 3 min at 3000 RPM. The collected homogenate is then treated with anhydrous magnesium sulfate (˜3500 mg), sodium acetate (˜220 mg) and vortexed well (˜30s) before further centrifugation for the same duration as above. The supernatant clear solution is then transferred into appropriate vials for LC/MS analysis without further dilution.
Control samples were prepared by spiking a known amount std clothianidin into 15 pairs of cotyledons (10 replicates) collected from the seedlings of untreated […] seeds and homogenized and processed as above. The recovery of the AI was quantified from the LC/MS data and then used to normalize the results from treated cotyledon sample sets.
as §4, with “Q-Exactive” for “Extractive Orbitrap”, “u).” for “μm).”

## C[n+]1c([O-])c(-c2ccccc2)c(=O)n2c1SC[C@@H]2c1cnc(Cl)s1 [(3R)-3-(2-chlorothiazol-5-yl)-8-methyl-5-oxo-6-phenyl-2,3-dihydrothiazolo[3,2-a]pyrimidin-8-ium-7-olate]
[1]
  concentration at 7 days after planting: 2290 ng/g
Canola seedlings
  Al Uptake (%): 0.40%

## CN/C(=N\[N+](=O)[O-])NCc1cnc(Cl)s1 [clothianidin, reference compound]
Wheat seedlings
  Average of clothianidin detected on 15 pairs of wheat cotyledons: 9.4 ± 2.0 ng
  % Clothianidin uptake in wheat cotyledons: 0.39 ± 0.08^a %

B1: CUT-1: Cutinase according to SEQ No. 1, biological source Pseudomonas mendocina (US5545547A) (protein, listed as Pseudomonas mendocina)
chain: APLPDTPGAPFPAVANFDRSGPYTTSSQSEGPSCRIYRPRDLGQGGVRHPVILWGNGTGAGPSTYAGLLSHWASHGFVVAAAETSNAGTGREMLACLDYLVRENDTPYGTYSGKLNTGRVGTSGHSQGGGGSIMAGQDTRVRTTAPIQPYTLGLGHDSASQRRQQGPMFLMSGGGDTIAFPYLNAQPVYRRANVPVFWGERRYVSHFEPVGSGGAYRGPSTAWFRFQLMDDQDARATFYGAQCSLCTSLLWSVERRGL
modifications: Cutinase 1
Canola seedlings
  Al Uptake (%): 0.60%
  Mean Al Uptake (ng/mg leaf): 3.04 ng/mg leaf
Canola seedlings; canola cotyledon analysis
  mean AI uptake (ng/mg leaf) compared with no enzyme control: significantly higher than no enzyme control
  percent of AI uptake compared with no enzyme control: significantly higher than no enzyme control
Wheat seedlings
  percent clothianidin uptake in wheat seedlings, effect of cutinase seed treatment: significantly enhanced
  Average of clothianidin detected on 15 pairs of wheat cotyledons: 12.5 ± 3.2 ng
  % Clothianidin uptake in wheat cotyledons: 0.59 ± 0.15^b %

B2: CUT-2: Cutinase according to SEQ No. 2, biological source Pseudomonas mendocina (PDB 2FX5_A) (protein, listed as Pseudomonas mendocina)
chain: APLPDTPGAPFPAVANFDRSGPYTVSSQSEGPSCRIYRPRDLGQGGVRHPVILWGNGTGAGPSTYAGLLSHWASHGFVVAAAETSNAGTGREMLACLDYLVRENDTPYGTYSGKLNTGRVGTSGHSQGGGGSIMAGQDTRVRTTAPIQPYTLGLGHDSASQRRQQGPMFLMSGGGDTIAFPYLNAQPVYRRANVPVFWGERRYVSHFEPVGSGGAYRGPSTAWFRFQLMDDQDARATFYGAQCSLCTSLLWSVERRGL
modifications: Cutinase 2
Canola seedlings
  Al Uptake (%): 0.39%
  Mean Al Uptake (ng/mg leaf): 1.87 ng/mg leaf
Wheat seedlings
  percent clothianidin uptake in wheat seedlings, effect of cutinase seed treatment: improvement was not significant
  Average of clothianidin detected on 15 pairs of wheat cotyledons: 11.9 ± 3.4 ng
  % Clothianidin uptake in wheat cotyledons: 0.53 ± 0.15^ab %

B3: CUT-4: Cutinase according to SEQ No. 4, Pseudomonas mendocina (94%), NCBI WP_096825365.1 (protein)
chain: APLPDTPGAPFPSVSNFDRSGPYATTSRSEGPNCRVYRPATLGQNGVRHPIVLWGNGTGTGPTAYSGLLSHWASHGFVVAAAETSNAGTGEQMLACLDYLVQESNRTYGTYVGVLNTGRVGTSGHSQGGGGSIMAGQDERVSVTAPIQPYTIGLGHDSASQRNQQGPMFLMSGGGDTIAFPYLNAQPVYTRANVPVFWGERRYVSHFEPVGDGGAYRGPSTAWFRYHLMEDETARSTFYGRFCGLCTSVLWTEERKDIE
modifications: Pseudomonas sp. SST3; Cutinase 9
Canola seedlings
  Al Uptake (%): 0.43%
  Mean Al Uptake (ng/mg leaf): 2.16 ng/mg leaf
Wheat seedlings
  percent clothianidin uptake in wheat seedlings, effect of cutinase seed treatment: improvement was not significant
  Average of clothianidin detected on 15 pairs of wheat cotyledons: 10.8 ± 2.1 ng
  % Clothianidin uptake in wheat cotyledons: 0.44 ± 0.09^a %

— patent publication US20230039941A1, “ENZYME ENHANCED ROOT UPTAKE OF AGROCHEMICAL ACTIVE COMPOUND” (BASF SE, priority 2019, published 2023)
